Consider one molecule from US20230133118A1 (ADAGENE, published 2023).

One experiment deals with cynomolgus monkey CD137 (cynomolgus monkey, UniProt A9YYE7 24-254). As to the kind of experiment: cell-based or functional assay.
Experiment [1] has as its target T1, mouse CD137 (mouse, UniProt P20334 24-187, limits assumed).
T1 sequence (looked up): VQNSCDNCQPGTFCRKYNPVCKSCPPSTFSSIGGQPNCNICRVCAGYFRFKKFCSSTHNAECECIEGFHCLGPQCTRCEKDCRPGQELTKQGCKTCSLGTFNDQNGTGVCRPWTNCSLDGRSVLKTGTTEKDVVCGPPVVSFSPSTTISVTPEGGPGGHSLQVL
Description: cell-based or functional assay.

In a further experiment the target is T2, human CD137 (human, UniProt Q07011 24-186).
T2 construct: also called CD137 receptor; 4-1BB
T2 sequence (Q07011 24-186 limits assumed): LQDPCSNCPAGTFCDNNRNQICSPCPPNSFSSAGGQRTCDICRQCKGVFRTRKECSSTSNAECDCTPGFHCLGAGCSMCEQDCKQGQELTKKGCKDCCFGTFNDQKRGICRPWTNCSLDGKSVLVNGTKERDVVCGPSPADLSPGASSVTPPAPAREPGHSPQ
As to the kind of experiment: surface plasmon resonance (SPR); format not described.

For experiment [2], the target named is T1, mouse CD137. As to the kind of experiment: not described; the reference is not named in the sentence (monkey and human CD137 in the sentences before).
The next experiment addresses T3, rat CD137 (rat).
T3 construct: It was recombinantly expressed in reporter cells for the NFkB assay; also called rodent CD137 receptors (rat)
The experiment is described as above.

Chain of cynomolgus monkey CD137 (A9YYE7 entry or part of it): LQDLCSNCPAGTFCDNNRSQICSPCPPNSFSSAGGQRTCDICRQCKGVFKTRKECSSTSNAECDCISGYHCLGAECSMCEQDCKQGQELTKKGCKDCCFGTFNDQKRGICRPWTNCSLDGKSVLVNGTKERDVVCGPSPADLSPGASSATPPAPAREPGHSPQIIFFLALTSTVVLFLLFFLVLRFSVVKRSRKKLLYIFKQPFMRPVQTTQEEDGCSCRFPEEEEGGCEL

B1: ADG106 (antibody, human IgG4 S228P, kappa, V domains shown)
VH: EVQLVESGGGLVQPGGSLRLSCAASGFSLSTGGVGVGWIRQAPGKGLEWLALIDWADDKYYSPSLKSRLTISRDNSKNTLYLQLNSLRAEDTAVYYCARGGSDTVIGDWFAYWGQGTLVTVSS
VL: DIQLTQSPSSLSASVGDRVTITCRASQSIGSYLAWYQQKPGKAPKLLIYDASNLETGVPSRFSGSGSGTDFTLTISSLQPEDFATYYCQQGYYLWTFGQGTKVEIKR
notes: also called anti-CD137 antibody ADG106; fully human agonistic anti-CD137 monoclonal IgG4 antibody
As for B1, the “EC50 (read off the curve) (NFkB reporter, 293T cells expressing monkey CD137)” value with cynomolgus monkey CD137 is roughly 0.3 µg/mL. Further, in the experiment with mouse CD137 [1], the “EC50 (read off the curve) (NFkB reporter, 293T cells expressing mouse CD137)” value was roughly 0.4 µg/mL. Also, in the experiment with human CD137, the Kd was found to be 3.7 nM. Further, the fold lower affinity with mouse CD137 [2] and in the experiment with rat CD137 was greater than 100 fold each time.
